Test results taken from US20240409635A1 (VIBRANT PHARMA, published 2024).

T1: recombinant human tumor antigen CEACAM-6 (ACRO systems, CE6-H5223) (human, UniProt P40199 35-320)
T1 construct: Bought
T1 sequence (looked up): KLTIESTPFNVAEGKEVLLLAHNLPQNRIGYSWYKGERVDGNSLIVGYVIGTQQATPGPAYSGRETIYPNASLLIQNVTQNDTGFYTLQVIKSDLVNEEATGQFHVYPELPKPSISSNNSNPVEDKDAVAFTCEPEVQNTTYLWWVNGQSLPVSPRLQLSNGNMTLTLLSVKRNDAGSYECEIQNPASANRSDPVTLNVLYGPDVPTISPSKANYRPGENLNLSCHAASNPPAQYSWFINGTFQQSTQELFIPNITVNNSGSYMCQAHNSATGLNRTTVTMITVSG


Tests used:
[1] = target: T2, recombinant human EGFR protein (ACRO systems, EGR-H5222) (human, UniProt P00533 25-645); experiment: BLI, antibody on AHC sensor, antigen as analyte
T2 construct: Bought
Description: (§1) Antibodies were first captured onto an anti-human IgG Fc coated AHC biosensor (Anti-hIgG Fc, Sartorius, 18-5060). Antibodies were diluted to 5 μg/mL and 1.5 nm protein was coupled to the AHC sensor surface in 0.02% PBST.
(§2) After the sensor captures the antibodies, it binds and dissociates with different concentrations of analytes to obtain the KD value of the interaction. The experimental parameters are as follows: Baseline1: 60 s, Loading: 240 s, Baseline2: 180 s, Association: 240 s, Dissociation: 600 s, High sensitivity kinetics: 2 Hz. Kinetic constants were derived based on the rate equation for 1:1 Langmuir binding to obtain equilibrium dissociation constants (KD). The Data Analysis HT 12 software (Sartorius, 50-5029) was used to simultaneously fit binding and dissociation curves to calculate Kₒₙ and Koff. The affinity KD was calculated based on the below formula: KD=Koff/Kₒₙ.

[2] = target: T1, recombinant human tumor antigen …; experiment: BLI, antibody on AHC sensor, antigen as analyte
Description: as §1, §2

[3] = target: T3, recombinant human protein CD3ε/δ (ACRO systems, CDD-H52W1) (human, UniProt P07766 23-126; P04234 22-105); experiment: BLI, antibody on AHC sensor, antigen as analyte
T3 construct: Bought heterodimer
T3 sequence (P07766 23-126, stated change not applied, chain 1 of 2): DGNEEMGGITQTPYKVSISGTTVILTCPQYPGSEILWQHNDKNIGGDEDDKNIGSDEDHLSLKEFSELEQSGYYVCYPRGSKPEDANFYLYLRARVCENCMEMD
T3 sequence (P04234 22-105, stated change not applied, chain 2 of 2): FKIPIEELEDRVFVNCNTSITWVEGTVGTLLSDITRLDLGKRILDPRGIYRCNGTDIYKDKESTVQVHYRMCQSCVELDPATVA
Description: as §1, §2

Insulin = target: T4, Insulin; experiment: ELISA, insulin coated, 100 nM antibody
T4 construct: Bought reagent, coated at 5 ug/mL
Description: (§3) The experimental steps are as follows [0420] […] (4) 50 μl anti-human IgG-HRP conjugate (Sigma, AP113P, 1:8000 dilution) was added to each well; the plate was incubated for 1 h at room temperature and washed 6 times with 0.05% PBST; [0424] (5) 50 μl of TMB chromogenic solution (Biopanda, TMB-S-001) was added to each well and incubated at room temperature for 10-15 minutes for color development; [0425] (6) 50 μl of 1M HCl was added to each well to stop the color development, and the absorbance at 450 nm was measured using a microplate reader (Biotek, SYNERGY LX); Data analysis: If the ratio between the absorbance of the antibody and the absorbance of the blank control PBS is ≥3, there is too much non-specific binding.

[4] = target: T5, keyhole limpet haemocyanin; experiment: ELISA, KLH coated, 100 nM antibody
T5 construct: Bought reagent, coated at 5 ug/mL; also called KLH
Description: as §3

Binder | koff [1] [s⁻¹] | kon [1] [M⁻¹ s⁻¹] | Kd [2] [nM] | koff [2] [s⁻¹] | kon [2] [M⁻¹ s⁻¹] | Kd [3] [nM] | koff [3] [s⁻¹] | kon [3] [M⁻¹ s⁻¹] | absorbance ratio to PBS blank (Insulin) | absorbance ratio to PBS blank [4]
CEACAM6-BsAb (CD3 TA1-Fab x CEA-CAM6 VHH bispecific control antibody) (bispecific antibody, human IgG4 S228P, kappa, F234A L235A, also called anti-CEA-CAM6-BsAb) heavy: EVKLLESGGGLVQPKGSLKLSCAASGFTFNTYAMNWVRQAPGKGLEWVARIRSKYNNYATYYADSVKDRFTISRDDSQSILYLQMNNLKTEDTAMYYCVRHGNFGNSYVSWFAYWGQGTLVTVSSASTKGPSVFPLAPCSRSTSESTAALGCLVKDYFPEPVTVSWNSGALTSGVHTFPAVLQSSGLYSLSSVVTVPSSSLGTKTYTCNVDHKPSNTKVDKRVESKYGPPCPPCPAPEAAGGPSVFLFPPKPKDTLMISRTPEVTCVVVDVSQEDPEVQFNWYVDGVEVHNAKTKPREEQFNSTYRVVSVLTVLHQDWLNGKEYKCKVSNKGLPSSIEKTISKAKGQPREPQVYTLPPCQEEMTKNQVSLWCLVKGFYPSDIAVEWESNGQPENNYKTTPPVLDSDGSFFLYSRLTVDKSRWQEGNVFSCSVMHEALHNHYTQKSLSLSL QVKLEESGGGLVQAGGSLRLSCRTSGRTNSVYTMGWFRQAPGKEREFVAQIMWGAGTNTHYADSVKGRFTISRDSAESTVYLQMNSLKPEDTAVYYCAANRGIPIAGRQYDYWGQGTQVTVSSESKYGPPCPPCPAPEAAGGPSVFLFPPKPKDTLMISRTPEVTCVVVDVSQEDPEVQFNWYVDGVEVHNAKTKPREEQFNSTYRVVSVLTVLHQDWLNGKEYKCKVSNKGLPSSIEKTISKAKGQPREPQVCTLPPSQEEMTKNQVSLSCAVKGFYPSDIAVEWESNGQPENNYKTTPPVLDSDGSFFLVSRLTVDKSRWQEGNVFSCSVMHEALHNRFTQKSLSLSL light: QAVVTQESALTTSPGETVTLTCRSSTGAVTTSNYANWVQEKPDHLFTGLIGGTNKRAPGVPARFSGSLIGDKAALTITGAQTEDEAIYFCALWYSNLWVFGGGTKVEIKRTVAAPSVFIFPPSDEQLKSGTASVVCLLNNFYPREAKVQWKVDNALQSGNSQESVTEQDSKDSTYSLSSTLTLSKADYEKHKVYACEVTHQGLSSPVTKSFNRGEC | 0.00143 | 570000 | 1.64 | 0.000336 | 206000 | 5.73 | 0.00421 | 734000 |  | 
CEA-BsAb bispecific control antibody (TA1-Fab anti-CD3 x CEA VHH) (bispecific antibody, human IgG4 S228P, kappa, F234A L235A, IgG4) heavy: EVKLLESGGGLVQPKGSLKLSCAASGFTFNTYAMNWVRQAPGKGLEWVARIRSKYNNYATYYADSVKDRFTISRDDSQSILYLQMNNLKTEDTAMYYCVRHGNFGNSYVSWFAYWGQGTLVTVSSASTKGPSVFPLAPCSRSTSESTAALGCLVKDYFPEPVTVSWNSGALTSGVHTFPAVLQSSGLYSLSSVVTVPSSSLGTKTYTCNVDHKPSNTKVDKRVESKYGPPCPPCPAPEAAGGPSVFLFPPKPKDTLMISRTPEVTCVVVDVSQEDPEVQFNWYVDGVEVHNAKTKPREEQFNSTYRVVSVLTVLHQDWLNGKEYKCKVSNKGLPSSIEKTISKAKGQPREPQVYTLPPCQEEMTKNQVSLWCLVKGFYPSDIAVEWESNGQPENNYKTTPPVLDSDGSFFLYSRLTVDKSRWQEGNVFSCSVMHEALHNHYTQKSLSLSL EVQLVESGGGFVQAGESLTLSCTSSTLTFTPYRMAWYRQAPGKQRDLVADISSGDGRTTNYADFAKGRFTISRDNIKNTVFLRMTNLKPEDTAVYYCNTFVSFVGIARSWGQGTQVTVSSESKYGPPCPPCPAPEAAGGPSVFLFPPKPKDTLMISRTPEVTCVVVDVSQEDPEVQFNWYVDGVEVHNAKTKPREEQFNSTYRVVSVLTVLHQDWLNGKEYKCKVSNKGLPSSIEKTISKAKGQPREPQVCTLPPSQEEMTKNQVSLSCAVKGFYPSDIAVEWESNGQPENNYKTTPPVLDSDGSFFLVSRLTVDKSRWQEGNVFSCSVMHEALHNRFTQKSLSLSL light: QAVVTQESALTTSPGETVTLTCRSSTGAVTTSNYANWVQEKPDHLFTGLIGGTNKRAPGVPARFSGSLIGDKAALTITGAQTEDEAIYFCALWYSNLWVFGGGTKVEIKRTVAAPSVFIFPPSDEQLKSGTASVVCLLNNFYPREAKVQWKVDNALQSGNSQESVTEQDSKDSTYSLSSTLTLSKADYEKHKVYACEVTHQGLSSPVTKSFNRGEC |  |  |  |  |  |  |  |  | 1.24 | 2.16
HER2-BsAb bispecific control antibody (TA1-Fab anti-CD3 x HER2 VHH) (bispecific antibody, human IgG4 S228P, kappa, F234A L235A, IgG4) heavy: EVKLLESGGGLVQPKGSLKLSCAASGFTFNTYAMNWVRQAPGKGLEWVARIRSKYNNYATYYADSVKDRFTISRDDSQSILYLQMNNLKTEDTAMYYCVRHGNFGNSYVSWFAYWGQGTLVTVSSASTKGPSVFPLAPCSRSTSESTAALGCLVKDYFPEPVTVSWNSGALTSGVHTFPAVLQSSGLYSLSSVVTVPSSSLGTKTYTCNVDHKPSNTKVDKRVESKYGPPCPPCPAPEAAGGPSVFLFPPKPKDTLMISRTPEVTCVVVDVSQEDPEVQFNWYVDGVEVHNAKTKPREEQFNSTYRVVSVLTVLHQDWLNGKEYKCKVSNKGLPSSIEKTISKAKGQPREPQVYTLPPCQEEMTKNQVSLWCLVKGFYPSDIAVEWESNGQPENNYKTTPPVLDSDGSFFLYSRLTVDKSRWQEGNVFSCSVMHEALHNHYTQKSLSLSL QVQLVQSGGGLVQAGGSLRLSCAASGRTFSSYAMAWFRQAPGKEREFVAAISWSGANIYVADSVKGRFTISRDNAKDTVYLQMNSLKPEDTAVYYCAVKLGFAPVEERQYDYWGQGTQVTVSSESKYGPPCPPCPAPEAAGGPSVFLFPPKPKDTLMISRTPEVTCVVVDVSQEDPEVQFNWYVDGVEVHNAKTKPREEQFNSTYRVVSVLTVLHQDWLNGKEYKCKVSNKGLPSSIEKTISKAKGQPREPQVCTLPPSQEEMTKNQVSLSCAVKGFYPSDIAVEWESNGQPENNYKTTPPVLDSDGSFFLVSRLTVDKSRWQEGNVFSCSVMHEALHNRFTQKSLSLSL light: QAVVTQESALTTSPGETVTLTCRSSTGAVTTSNYANWVQEKPDHLFTGLIGGTNKRAPGVPARFSGSLIGDKAALTITGAQTEDEAIYFCALWYSNLWVFGGGTKVEIKRTVAAPSVFIFPPSDEQLKSGTASVVCLLNNFYPREAKVQWKVDNALQSGNSQESVTEQDSKDSTYSLSSTLTLSKADYEKHKVYACEVTHQGLSSPVTKSFNRGEC |  |  |  |  |  |  |  |  | 1.69 | 2.31
CEA-CAM6-BsAb bispecific control antibody (TA1-Fab anti-CD3 x CEA-CAM6 VHH) (bispecific antibody, human IgG4 S228P, kappa, F234A L235A, IgG4) heavy: EVKLLESGGGLVQPKGSLKLSCAASGFTFNTYAMNWVRQAPGKGLEWVARIRSKYNNYATYYADSVKDRFTISRDDSQSILYLQMNNLKTEDTAMYYCVRHGNFGNSYVSWFAYWGQGTLVTVSSASTKGPSVFPLAPCSRSTSESTAALGCLVKDYFPEPVTVSWNSGALTSGVHTFPAVLQSSGLYSLSSVVTVPSSSLGTKTYTCNVDHKPSNTKVDKRVESKYGPPCPPCPAPEAAGGPSVFLFPPKPKDTLMISRTPEVTCVVVDVSQEDPEVQFNWYVDGVEVHNAKTKPREEQFNSTYRVVSVLTVLHQDWLNGKEYKCKVSNKGLPSSIEKTISKAKGQPREPQVYTLPPCQEEMTKNQVSLWCLVKGFYPSDIAVEWESNGQPENNYKTTPPVLDSDGSFFLYSRLTVDKSRWQEGNVFSCSVMHEALHNHYTQKSLSLSL QVKLEESGGGLVQAGGSLRLSCRTSGRTNSVYTMGWFRQAPGKEREFVAQIMWGAGTNTHYADSVKGRFTISRDSAESTVYLQMNSLKPEDTAVYYCAANRGIPIAGRQYDYWGQGTQVTVSSESKYGPPCPPCPAPEAAGGPSVFLFPPKPKDTLMISRTPEVTCVVVDVSQEDPEVQFNWYVDGVEVHNAKTKPREEQFNSTYRVVSVLTVLHQDWLNGKEYKCKVSNKGLPSSIEKTISKAKGQPREPQVCTLPPSQEEMTKNQVSLSCAVKGFYPSDIAVEWESNGQPENNYKTTPPVLDSDGSFFLVSRLTVDKSRWQEGNVFSCSVMHEALHNRFTQKSLSLSL light: QAVVTQESALTTSPGETVTLTCRSSTGAVTTSNYANWVQEKPDHLFTGLIGGTNKRAPGVPARFSGSLIGDKAALTITGAQTEDEAIYFCALWYSNLWVFGGGTKVEIKRTVAAPSVFIFPPSDEQLKSGTASVVCLLNNFYPREAKVQWKVDNALQSGNSQESVTEQDSKDSTYSLSSTLTLSKADYEKHKVYACEVTHQGLSSPVTKSFNRGEC |  |  |  |  |  |  |  |  | 0.87 | 0.45
